Assay results as given in PMC9133088.

How the values were obtained:
[1] = immunoprecipitation and phospho-S720 immunoblot; conditions: glycan lost
[2] = lysosomal fractionation, glucose starvation; conditions: glycan lost; control: control siRNA
[3] = RagD GTP hydrolysis, GTP-agarose pulldown, glucose-starved cells; conditions: glycan lost; control: overexpressed WT LARS1
[4] = lysosomal fractionation, leucine added without glucose; conditions: glycan lost; control: overexpressed WT LARS1
[5] = LARS1 immunoprecipitation, immunoblot, knock-in cells; conditions: glycan lost; control: WT SW620 cells, glucose starvation
[6] = lysosomal fractionation, knock-in cells, glucose starvation; conditions: glycan lost; control: WT SW620 cells
[7] = near-UV circular dichroism; conditions: glycan lost; control: WT LARS1, same OGT1 condition
[8] = in vitro GTPase assay, GTP-agarose pulldown; conditions: glycan lost; control: unmodified WT LARS1 with ATP and leucine
[9] = control: control siRNA, glucose starvation

Which “other: S720 phosphorylation by ULK1” value [1, 9] does the source give for “leucyl-tRNA synthetase 1 (LARS1): GFPT1 siRNA” here?
The value was “decreases”.

And the localisation_or_trafficking [2]?
Its localisation_or_trafficking is “increases”.

With “leucyl-tRNA synthetase 1 (LARS1): OGT1 siRNA” as the substance, how does the “other: S720 phosphorylation by ULK1” value [1, 9] read?
Its value is “decreases”.

For “leucyl-tRNA synthetase 1 (LARS1): S1042A”, which “other: S720 phosphorylation by ULK1” value ([1]; control: overexpressed WT LARS1, glucose starvation) is on record?
The value was “abolishes”.

What about the enzymatic_activity [3] of the same substance?
The enzymatic_activity was “increases”.

And the localisation_or_trafficking [4]?
The localisation_or_trafficking was “increases”.

What does the source list for “leucyl-tRNA synthetase 1 (LARS1): S1042A knock-in”?
other: S720 phosphorylation by ULK1 [5]: decreases; localisation_or_trafficking [6]: increases

With “leucyl-tRNA synthetase 1 (LARS1): S1042A with OGT1” as the substance, how does the structure_or_conformation [7] read?
The structure_or_conformation was “changes”.

For “leucyl-tRNA synthetase 1 (LARS1): S1042A without OGT1”, which structure_or_conformation [7] is on record?
Its structure_or_conformation is “no change”.

Which enzymatic_activity [8] does the source give for “leucyl-tRNA synthetase 1 (LARS1): S1042A ± OGT1” here?
Its enzymatic_activity is “no change”.
